Reference: patent US20100278837A1, “Compositions And Methods For Reducing Cancer And Inflammation” (The Regents of the University of California, priority 2009, published 2010)

B1: mouseVCAM-1/humanFc fusion protein (R&D Systems) (Fc fusion, UniProt P29533 25-698, looked up)
chain: FKIEISPEYKTIAQIGDSMALTCSTTGCESPLFSWRTQIDSPLNAKVRTEGSKSVLTMEPVSFENEHSYLCTATCGSGKLERSIHVDIYSFPKDPEIQFSGPLEVGKPVTVKCLAPDIYPVYRLEIDLFKGDQLMNRQEFSSEEMTKSLETKSLEVTFTPVIEDIGKALVCRAKLHIDQIDSTLKERETVKELQVYISPRNTTISVHPSTRLQEGGAVTMTCSSEGLPAPEIFWGRKLDNEVLQLLSGNATLTLIAMRMEDSGVYVCEGVNLIGRDKAEVELVVQEKPFIVDISPGSQVAAQVGDSVVLTCAAIGCDSPSFSWRTQTDSPLNGVVRNEGAKSTLVLSSVGFEDEHSYLCAVTCLQRTLEKRTQVEVYSFPEDPVIKMSGPLVHGRPVTVNCTVPNVYPFDHLEIELLKGETTLMKKYFLEEMGIKSLETKILETTFIPTIEDTGKSLVCLARLHSGEMESEPKQRQSVQPLYVNVAPKETTIWVSPSPILEEGSPVNLTCSSDGIPAPKILWSRQLNNGELQPLSENTTLTFMSTKRDDSGIYVCEGINEAGISRKSVELIIQVSPKDIQLTVFPSKSVKEGDTVIISCTCGNVPETWIILKKKAKTGDMVLKSVDGSYTIRQAQLQDAGIYECESKTEVGSQLRSLTLDVKGKEHNKDYFSPE
notes: Bought reagent; Detected with donkey anti-human-FC-PE; also called VCAM-1/Fc; VCAM-1/FC; not shown: human Fc
B2: murine integrin α4Y991A β1 of CD11b+ myeloid cells from α4Y991A knockin mice (receptor, mouse)
chain 1: YNLDPENALLYQGPSGTLFGYSVVLHSHGSKRWLIVGAPTASWLSNASVVNPGAIYRCGIRKNPNQTCEQLQSGSPSGEPCGKTCLEERDNQWLGVTLSRQPGENGSIVTCGHRWKNIFYMKSDNKLPTGICYVMPSDLRTELSKRMAPCYKDYTRKFGENFASCQAGISSFYTQDLIVMGAPGSSYWTGTVFVYNITTNQYKAFVDRQNQVKFGSYLGYSVGAGHFRSPHTTEVVGGAPQHEQIGKAYIFSIDENELNIVYEMKGKKLGSYFGASVCAVDLNADGFSDLLVGAPMQSTIREEGRVFVYINSGMGAVMVEMERVLVGSDKYAARFGESIANLGDIDNDGFEDIAIGAPQEDDLRGAVYIYNGRVDGISSTYSQRIEGQQISKSLRMFGQSISGQIDADNNGYVDVAVGAFQSDSAVLLRTRPVVIVEASLSHPESVNRTKFDCTENGLPSVCMHLTLCFSYKGKEVPGYIVLFYNVSLDVHRKAESPSRFYFFSNGTSDVITGSIRVSSSGEKCRTHQAFMRKDVRDILTPIHVEATYHLGHHVITKRNTEEFPPLQPILQQKKEKDVIRKMINFARFCAYENCSADLQVSAKVGFLKPYENKTYLAVGSMKTIMLNVSLFNAGDDAYETTLNVQLPTGLYFIKILDLEEKQINCEVTESSGIVKLACSLGYIYVDRLSRIDISFLLDVSSLSRAHEDLSISVHASCENEGELDQVRDNRVTLTIPLRYEVMLTVHGLVNPTSFVYGSSEENEPETCMAEKLNLTFHVINTGISMAPNVSVKIMVPNSFLPQDDKLFNVLDVQTTTGQCHFKHYGRECTFAQQKGIAGTLTDIVKFLSKTDKRLLYCMKADQHCLDFLCNFGKMESGKEASVHIQLEGRPSILEMDETSSLKFEIKATAFPEPHPKVIELNKDENVAHVFLEGLHHQRPKRHFTIIIITISLLLGLIVLLLISCVMWKAGFFKRQYKSILQEENRRDSWSAVNSKSNDD
chain 2: QTDKNRCLKANAKSCGECIQAGPNCGWCTNTTFLQEGMPTSARCDDLEALKKKGCQPSDIENPRGSQTIKKNKNVTNRSKGMAEKLRPEDITQIQPQQLLLKLRSGEPQKFTLKFKRAEDYPIDLYYLMDLSYSMKDDLENVKSLGTDLMNEMRRITSDFRIGFGSFVEKTVMPYISTTPAKLRNPCTSEQNCTSPFSYKNVLSLTDRGEFFNELVGQQRISGNLDSPEGGFDAIMQVAVCGSLIGWRNVTRLLVFSTDAGFHFAGDGKLGGIVLPNDGQCHLENNVYTMSHYYDYPSIAHLVQKLSENNIQTIFAVTEEFQPVYKELKNLIPKSAVGTLSGNSSNVIQLIIDAYNSLSSEVILENSKLPDGVTINYKSYCKNGVNGTGENGRKCSNISIGDEVQFEISITANKCPNKESETIKIKPLGFTEEVEVVLQFICKCNCQSHGIPASPKCHEGNGTFECGACRCNEGRVGRHCECSTDEVNSEDMDAYCRKENSSEICSNNGECVCGQCVCRKRDNTNEIYSGKFCECDNFNCDRSNGLICGGNGVCRCRVCECYPNYTGSACDCSLDTGPCLASNGQICNGRGICECGACKCTDPKFQGPTCETCQTCLGVCAEHKECVQCRAFNKGEKKDTCAQECSHFNLTKVESREKLPQPVQVDPVTHCKEKDIDDCWFYFTYSVNGNNEAIVHVVETPDCPTGPDIIPIVAGVVAGIVLIGLALLLIWKLLMIIHDRREFAKFEKEKMNAKWDTGENPIYKSAVTTVVNPKYEGK
notes: whole, on cells; It may be mature-chain numbering and may not match the precursor entry; also called α4YA; YA

Assays:
[1] = system: CD11b+ cells adhesion to endothelium; test: Adhesion of CD11b+ cells to endothelium (Example 1 adhesion assay); type: cell-based, murine; details: SDF-1α, TCM or IL-1β (and other chemoattractant) induced
Experimental: TCM was prepared from serum-free media cultured on LLC cells for 18 h and filtered through 0.22 μm filters. 10^5 calcein-AM labelled human or murine CD11b+ cells in TCM or DMEM containing 200 ng/ml SDF-1α, IL-1β, IL-6, IL-8 or VEGF-A (R&D Systems) were incubated on HUVEC monolayers or on plastic plates coated with 5 μg/ml recombinant soluble VCAM-1 (R&D Systems). Adherent cells were quantified using a fluorescence activated plate reader (GeniosPro, TECAN). In some assays, cells were also incubated in 25 μg/ml anti-integrin α4β1 (PS2 for murine cells and HP2/1 for human cells, gifts from Biogen-Idec) and isotype control antibodies (IgG2bk for murine cells and IgG1 for human cells). In some studies, cells were incubated in 10 μM pan PI3K inhibitors […] or TG020, in PI3kinase α inhibitor PI3K75, PI3kinase γ/δ inhibitor TG115 and an inert control.

[2] = system: integrin α4; test: Integrin α4 clustering in CD11b+ cells; type: cell-based; details: SDF-1α or IL-1β induced
Experimental: Activation of human CD29 (integrin β1 chain) in cytokine stimulated human CD11b+ cells was quantified by flow cytometry using HUTS-21 antibodies (BD Bioscience). Total β1 integrin levels were assessed using P4C10 antibodies (Chemicon). 2.5×10^6 freshly isolated human myeloid cells/ml in culture medium containing 5% FBS and 0.5% NaN3 were incubated in 10 μg/ml normal human immunoglobulin (12000C, Caltag) for 45 min on ice, then in 2 μg/ml SDF-1α, IL-1β, IL-6 or 1 mM Mn2+ plus 2.5 μg HUTS21, P4C10, or IgG2 control for 10 min at 37° C. followed by Alexa 488 goat-anti mouse antibodies for 20 min on ice. Expression levels of murine integrin α4 on bone marrow derived cells were determined by flow cytometry for PE-conjugated R1/2 (rat anti-CD49d antibody, eBioscience). To induce integrin α4 activation on human myeloid cells or murine WT and α4Y991A myeloid, purified CD11b+ cells were incubated with polystyrene microspheres (9.0 μm diameter, Bangs Laboratories) coated with TCM, 2 μg/ml SDF-1α or IL-1β overnight at 4° C. cells as previously described by Grabovsky et al., 2000. […] Samples were analyzed by Nikon CS1 spectral confocal on a Nikon TE2000E inverted microscopy. Images were captured using EZ-C13.00 imaging software and analyzed using Metamorph software.

[3] = biological target: B2; test: flow cytometry of VCAM-1/Fc on CD11b+ cells (FIG. 27e)
Experimental: (§1) 5×10⁵ CD11b+ cells isolated from WT, α4Y991A, or PI3-kinase γ−/− mice (naïve or tumour-bearing) were incubated with 200 ng/ml IL-1β, SDF-1α, IL-6, TNFα, VEGF-A or medium together with 1 mg/ml mouseVCAM-1/humanFc fusion protein (R&D Systems) for 3 min. Cells were washed twice and incubated with donkey anti-human-FC-PE antibody (Jackson Immunoresearch) then analysed by FACs Calibur. Mean fluorescence intensity of treated cells was compared to that of unstimulated cells (basal). In other studies, cells from WT mice were untreated or were treated with 1 μM PI3-kinase α, β, or γ inhibitors for 30 min at 37° C. In some experiments GFP/RapV12 or GFP/RasV12 transfected CD11b+ cells were used. In this case, increased mean fluorescence intensity was measured for only GFP-positive cells.

[4] = biological target: T1, murine integrin α4β1 (wildtype) of CD11b+ myeloid cells (mouse, UniProt Q00651 41-1039; P09055 21-798); test: flow cytometry, VCAM-1/Fc on murine CD11b+ cells (FIG. 27e)
T1 construct: whole, on cells; In the co-immunoprecipitations it was precipitated from CHAPS lysates of bone marrow cells with PS/2; also called VLA-4; VLA4
Experimental: as §1

[5] = biological target: T2, talin (murine, endogenous in bone marrow derived myeloid cells) (mouse, UniProt P26039 1-2541); test: co-immunoprecipitation with PS/2, immunoblot (FIG. 3d)
T2 construct: Detected by immunoblot with anti-talin clone TD77
T2 sequence (P26039 whole entry): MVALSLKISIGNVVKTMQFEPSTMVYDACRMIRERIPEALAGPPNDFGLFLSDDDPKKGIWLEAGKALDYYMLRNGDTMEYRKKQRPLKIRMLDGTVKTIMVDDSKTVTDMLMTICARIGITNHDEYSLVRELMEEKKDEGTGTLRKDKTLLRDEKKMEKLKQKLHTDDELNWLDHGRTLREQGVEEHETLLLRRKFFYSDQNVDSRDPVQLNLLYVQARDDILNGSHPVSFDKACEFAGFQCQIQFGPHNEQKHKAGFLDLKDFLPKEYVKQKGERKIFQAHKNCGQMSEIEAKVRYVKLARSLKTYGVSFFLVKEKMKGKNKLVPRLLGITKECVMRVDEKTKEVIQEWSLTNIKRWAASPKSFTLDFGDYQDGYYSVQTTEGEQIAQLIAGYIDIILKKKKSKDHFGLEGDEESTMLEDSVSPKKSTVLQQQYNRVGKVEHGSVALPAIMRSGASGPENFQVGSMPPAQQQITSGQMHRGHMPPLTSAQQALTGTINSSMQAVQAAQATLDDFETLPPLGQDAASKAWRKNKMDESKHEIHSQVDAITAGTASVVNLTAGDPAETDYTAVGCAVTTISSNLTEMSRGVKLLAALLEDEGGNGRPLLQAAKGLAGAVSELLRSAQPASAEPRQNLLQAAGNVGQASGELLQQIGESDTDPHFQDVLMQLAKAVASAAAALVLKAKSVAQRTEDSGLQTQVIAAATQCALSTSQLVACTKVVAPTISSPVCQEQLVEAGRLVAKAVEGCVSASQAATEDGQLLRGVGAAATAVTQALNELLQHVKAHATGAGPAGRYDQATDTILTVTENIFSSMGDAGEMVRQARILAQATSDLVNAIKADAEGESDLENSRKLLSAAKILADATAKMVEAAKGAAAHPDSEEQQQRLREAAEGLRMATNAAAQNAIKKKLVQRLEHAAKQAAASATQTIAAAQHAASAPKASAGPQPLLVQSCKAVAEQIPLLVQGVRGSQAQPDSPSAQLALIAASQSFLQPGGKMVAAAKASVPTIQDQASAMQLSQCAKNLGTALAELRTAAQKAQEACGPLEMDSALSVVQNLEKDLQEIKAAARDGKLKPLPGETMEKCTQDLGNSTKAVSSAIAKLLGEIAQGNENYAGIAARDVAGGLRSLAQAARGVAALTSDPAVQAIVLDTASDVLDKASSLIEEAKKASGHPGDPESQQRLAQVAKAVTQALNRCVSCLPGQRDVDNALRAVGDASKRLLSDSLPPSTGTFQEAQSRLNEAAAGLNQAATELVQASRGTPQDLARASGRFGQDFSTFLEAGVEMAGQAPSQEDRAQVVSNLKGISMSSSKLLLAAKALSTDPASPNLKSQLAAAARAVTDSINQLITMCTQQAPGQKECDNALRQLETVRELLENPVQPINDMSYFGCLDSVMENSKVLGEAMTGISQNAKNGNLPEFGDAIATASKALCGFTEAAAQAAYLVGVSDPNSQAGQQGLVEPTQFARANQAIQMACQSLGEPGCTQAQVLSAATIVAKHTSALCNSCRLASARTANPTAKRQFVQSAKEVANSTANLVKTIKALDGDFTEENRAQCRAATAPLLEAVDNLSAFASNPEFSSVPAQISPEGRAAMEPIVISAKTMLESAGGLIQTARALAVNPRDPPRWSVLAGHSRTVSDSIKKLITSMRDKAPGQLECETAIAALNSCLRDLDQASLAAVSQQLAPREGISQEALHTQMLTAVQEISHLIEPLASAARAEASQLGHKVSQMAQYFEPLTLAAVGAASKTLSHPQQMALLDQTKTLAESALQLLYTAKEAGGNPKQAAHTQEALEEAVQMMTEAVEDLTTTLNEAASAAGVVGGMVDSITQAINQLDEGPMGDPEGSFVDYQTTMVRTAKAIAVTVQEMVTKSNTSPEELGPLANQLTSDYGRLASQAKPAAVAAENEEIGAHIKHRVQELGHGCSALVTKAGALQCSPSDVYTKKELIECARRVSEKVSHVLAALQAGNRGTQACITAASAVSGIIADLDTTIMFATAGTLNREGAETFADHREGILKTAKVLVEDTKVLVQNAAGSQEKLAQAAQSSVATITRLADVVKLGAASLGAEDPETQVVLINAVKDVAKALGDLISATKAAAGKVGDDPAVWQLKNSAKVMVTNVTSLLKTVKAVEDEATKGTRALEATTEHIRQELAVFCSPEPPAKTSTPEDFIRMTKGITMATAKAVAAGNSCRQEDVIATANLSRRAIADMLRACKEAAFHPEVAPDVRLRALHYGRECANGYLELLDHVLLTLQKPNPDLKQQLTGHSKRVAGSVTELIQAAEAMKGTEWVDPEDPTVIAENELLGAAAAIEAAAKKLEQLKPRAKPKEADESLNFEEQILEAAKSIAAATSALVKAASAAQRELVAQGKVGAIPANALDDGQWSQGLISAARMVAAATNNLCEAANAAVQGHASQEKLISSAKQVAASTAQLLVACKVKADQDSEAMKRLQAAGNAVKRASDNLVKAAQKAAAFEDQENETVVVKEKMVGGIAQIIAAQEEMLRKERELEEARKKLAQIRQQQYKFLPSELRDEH
Experimental: BM monocytic cells from WT or α4Y991A mice were isolated as described above and treated with either DMEM or TCM for 30 min at 37° C. Cells were rinsed with cold PBS and lysed in Tris-buffered saline containing 1% CHAPS, 20 mM β-glycerophosphate, 1 mM Na₃VO₄, 5 mM NaF, 100 ng/ml microcystin-LR, and protease inhibitor cocktail. Clarified cell lysates were immunoprecipitated as follows: 1 mg total protein was precleared with 10 μl protein G-conjugated Dynabeads (Invitrogen) for 1 hr with rotation. Cleared lysates were incubated with 5 μg of rat anti-α4β1 (PS/2) antibody overnight, followed by adding 25 μl of protein G-conjugated Dynabeads for 3 h with rotation. Beads were washed three times with 1 ml cold PBS containing protease inhibitor cocktail. Protein precipitates were electrophoresed on 10% SDS-PAGE gels and immunoblotted with anti-integrin α4 (C-20, Santa Cruz Biotechnology), anti-talin (Clone TD77, Chemicon) or anti-paxillin (H-114, Santa Cruz Biotechnology) antibodies. Immune complexes were visualized using an enhanced chemiluminescence detection kit (Pierce).
BM cells (comprised of 80% CD11b+Gr1+ cells) from WT or α4Y991A mice were isolated as described above and treated with either DMEM or TCM for 30 min at 37° C. […]

Molecule: pertussis toxin
- CD11b+ cell adhesion to endothelium [1]: inhibited SDF-1α, and TCM-induced but not IL-1β induced adhesion
- integrin α4 clustering [2]: blocked SDF-1α-induced integrin clustering

Molecule: B1
- binding result [3]: no binding
- binding result [4]: binds

Molecule: B2
- binding result [5]: no binding
